Laboratory results published in the supplement of paper PMC10567573.
± gives the standard deviation.

Test: protein stability index of a GFP-peptide fusion (GPS, HEK-293T) (PSI 1-6); higher = more stable
Details: c terminus: a fixed tail appended
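Also: 24-mer peptide tiles fused after GFP, lentivirally expressed, FACS-sorted into six equal bins by GFP/DsRed ratio, decoded by Illumina sequencing, PSI is the read-weighted mean bin number.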

Q: With ESQLPEEWENNRESLIVFMEQVHR [CPXM2] as the sequence, how does the protein stability index (treatment: DMSO) read?
A: 3.79 ± 0.33

Q: And the protein stability index (treatment: MLN4924 1 uM, 8 h)?
A: 3.82 ± 0.49

Q: Which protein stability index (treatment: DMSO) does the source give for RDNGDPSLSSTATVLLVLEDEDPE [PCDHGC5] here?
A: 4.94 ± 0.36

Q: And the protein stability index (treatment: MLN4924 1 uM, 8 h)?
A: 5.16 ± 0.12

Q: Which results are given for ELDIPQSVQQNGSIYIHVYFTKSG [CLPTM1]?
A: protein stability index (treatment: DMSO): 2.3 ± 0.57; protein stability index (treatment: MLN4924 1 uM, 8 h): 2.85 ± 0.67

Q: Which protein stability index (treatment: DMSO) does the source give for GTILNYLRDGAVPLPESRREIEEL [KCTD10] here?
A: 3.98 ± 0.19

Q: What about the protein stability index (treatment: MLN4924 1 uM, 8 h) of the same sequence?
A: 4.15 ± 0.073

Q: Which protein stability index (treatment: DMSO) does the source give for KQPDLTMVRKIGCYAAMKKKIYAM [GAN] here?
A: 2.28 ± 0.45

Q: What about the protein stability index (treatment: MLN4924 1 uM, 8 h) of the same sequence?
A: 2.21 ± 0.14

Q: Which results are given for WNNVGLLGGRALMNCLPSNRTLWR [LRRC45]?
A: protein stability index (treatment: DMSO): 2.23 ± 0.31; protein stability index (treatment: MLN4924 1 uM, 8 h): 2.24 ± 0.45

Q: For SLNMSRRDSESTRHDSETEDMLWD [PHTF1], which protein stability index (treatment: DMSO) is on record?
A: 5.32 ± 0.15

Q: And the protein stability index (treatment: MLN4924 1 uM, 8 h)?
A: 5.26 ± 0.2

Q: With NLLSPLLTGTESPFDLEQQWQDLM [NFE2L1] as the sequence, how does the protein stability index (treatment: DMSO) read?
A: 3.12 ± 0.21

Q: And the protein stability index (treatment: MLN4924 1 uM, 8 h)?
A: 3.17 ± 0.041

Q: For DDNSCEDLEEERREEEEKTPPETK [PCMTD2], which protein stability index (treatment: DMSO) is on record?
A: 5.73 ± 0.34

Q: What about the protein stability index (treatment: MLN4924 1 uM, 8 h) of the same sequence?
A: 5.54 ± 0.25

Q: Which protein stability index (treatment: DMSO) does the source give for PDVRPPLGRGLVGGQEEASQEAGL [SEPHS2] here?
A: 5.27 ± 0.14

Q: What about the protein stability index (treatment: MLN4924 1 uM, 8 h) of the same sequence?
A: 5.31 ± 0.18

Q: With SFFVPRPTPSTPRPTPQDWLHRRA [ADAMTS4] as the sequence, how does the protein stability index (treatment: DMSO) read?
A: 3.4 ± 0.21

Q: And the protein stability index (treatment: MLN4924 1 uM, 8 h)?
A: 3.4 ± 0.084

Q: Which results are given for VTVTDVDIVFSKIKGKSCRTITFE [TPPP]?
A: protein stability index (treatment: DMSO): 2.23 ± 0.24; protein stability index (treatment: MLN4924 1 uM, 8 h): 2.1 ± 0.28

Q: Which results are given for RPRALPCQRSRYRDSLTQPDEEPM [RSPH3]?
A: protein stability index (treatment: DMSO): 4.62 ± 0.36; protein stability index (treatment: MLN4924 1 uM, 8 h): 5.01 ± 0.17

Q: With PESLNSPVSGKAVFMEFGPPNQQM [DLX1] as the sequence, how does the protein stability index (treatment: DMSO) read?
A: 3.79 ± 0.33

Q: What about the protein stability index (treatment: MLN4924 1 uM, 8 h) of the same sequence?
A: 3.92 ± 0.26

Q: With GLPAQQVGPWLGQLQELLHHCDDH [RSAD1] as the sequence, how does the protein stability index (treatment: DMSO) read?
A: 3.6 ± 0.34

Q: What about the protein stability index (treatment: MLN4924 1 uM, 8 h) of the same sequence?
A: 3.61 ± 0.29

Q: With AALNAHSDCCRKLLSSGFEIDTPD [ANKRD44] as the sequence, how does the protein stability index (treatment: DMSO) read?
A: 3.61 ± 0.24

Q: What about the protein stability index (treatment: MLN4924 1 uM, 8 h) of the same sequence?
A: 3.59 ± 0.42

Q: What does the source list for HSFQSSHRPSLNSVSLQINCQSVA [DLC1]?
A: protein stability index (treatment: DMSO): 2.95 ± 0.29; protein stability index (treatment: MLN4924 1 uM, 8 h): 2.98 ± 0.28

Q: For MAGGPPNTKAEMEMSLAEELNHGR [FATE1], which protein stability index (treatment: DMSO) is on record?
A: 5.17 ± 0.14

Q: What about the protein stability index (treatment: MLN4924 1 uM, 8 h) of the same sequence?
A: 5.22 ± 0.27

Q: What does the source list for AGADLKERAKMSSSEVGPFVSKIR [AUH]?
A: protein stability index (treatment: DMSO): 3.21 ± 0.21; protein stability index (treatment: MLN4924 1 uM, 8 h): 4.069 ± 0.006

Q: For EVITAAEFHPHHCNTFVYSSSKGT [PPP2R2B], which protein stability index (treatment: DMSO) is on record?
A: 3.28 ± 0.3

Q: And the protein stability index (treatment: MLN4924 1 uM, 8 h)?
A: 3.35 ± 0.56

Q: For FCGATIAGLSLLSPSVMRLVHTQE [ALKBH7], which protein stability index (treatment: DMSO) is on record?
A: 3.06 ± 0.44

Q: And the protein stability index (treatment: MLN4924 1 uM, 8 h)?
A: 2.71 ± 0.96

Q: With QMMPYMQPVMQSDRTAIRSDTTHL [KLHL13] as the sequence, how does the protein stability index (treatment: DMSO) read?
A: 3.5 ± 0.24

Q: And the protein stability index (treatment: MLN4924 1 uM, 8 h)?
A: 3.5 ± 0.23

Q: For YHNAGTQTVPKRIPERLSIFCRDT [IQUB], which protein stability index (treatment: DMSO) is on record?
A: 2.51 ± 0.28

Q: What about the protein stability index (treatment: MLN4924 1 uM, 8 h) of the same sequence?
A: 3.04 ± 0.8

Q: Which protein stability index (treatment: DMSO) does the source give for FFTLDLEHIADALRAIDFGTDEEE [TRIM63] here?
A: 3.9 ± 0.63

Q: And the protein stability index (treatment: MLN4924 1 uM, 8 h)?
A: 4.27 ± 0.26

Q: Which protein stability index (treatment: DMSO) does the source give for LGSIFQQLAHMVKEQEETIQRIDE [STX5] here?
A: 4.48 ± 0.2

Q: What about the protein stability index (treatment: MLN4924 1 uM, 8 h) of the same sequence?
A: 4.26 ± 0.098

Q: For RVKLISNKGTETDNDPSCVHPIIK [PHTF1], which protein stability index (treatment: DMSO) is on record?
A: 3.58 ± 0.16

Q: And the protein stability index (treatment: MLN4924 1 uM, 8 h)?
A: 3.83 ± 0.35

Q: Which results are given for TLRGTGATADFADVADDFENYHKL [NETO1]?
A: protein stability index (treatment: DMSO): 4.4 ± 0.22; protein stability index (treatment: MLN4924 1 uM, 8 h): 4.49 ± 0.084

Q: Which protein stability index (treatment: DMSO) does the source give for DGGSSLASGSTQRQPPPPAPQHPQ [FBXO28] here?
A: 5.22 ± 0.34

Q: And the protein stability index (treatment: MLN4924 1 uM, 8 h)?
A: 5.18 ± 0.35

Q: With ESRIVEQENAIQTMELRNYFSLYC [SNX8] as the sequence, how does the protein stability index (treatment: DMSO) read?
A: 2.62 ± 0.3

Q: And the protein stability index (treatment: MLN4924 1 uM, 8 h)?
A: 2.61 ± 0.19

Q: With RLELERKIESLMDEIEFLKKLHEE [PRPH] as the sequence, how does the protein stability index (treatment: DMSO) read?
A: 3.32 ± 0.17

Q: And the protein stability index (treatment: MLN4924 1 uM, 8 h)?
A: 3.44 ± 0.31

Q: Which protein stability index (treatment: DMSO) does the source give for VFMEFGPPNQQMSPSPMSHGHYSM [DLX1] here?
A: 2.21 ± 0.1

Q: And the protein stability index (treatment: MLN4924 1 uM, 8 h)?
A: 2.24 ± 0.23

Q: With GRFKLSIPHTHLLATLDPLALDRE [WDR88] as the sequence, how does the protein stability index (treatment: DMSO) read?
A: 2.76 ± 0.24

Q: And the protein stability index (treatment: MLN4924 1 uM, 8 h)?
A: 2.76 ± 0.34

Q: Which protein stability index (treatment: DMSO) does the source give for IELQGVPNDEVHPLLGVKGDGKSK [RBBP5] here?
A: 5.14 ± 0.19

Q: And the protein stability index (treatment: MLN4924 1 uM, 8 h)?
A: 4.96 ± 0.21

Q: Which protein stability index (treatment: DMSO) does the source give for LIKFQVGLKKLNLHEEEHVLLMAI [VDR] here?
A: 2.8 ± 0.62

Q: What about the protein stability index (treatment: MLN4924 1 uM, 8 h) of the same sequence?
A: 2.73 ± 0.78

Q: Which protein stability index (treatment: DMSO) does the source give for VPAGEEEGELGEYRQKLLMFLEIS [VPS39] here?
A: 3.39 ± 0.16

Q: And the protein stability index (treatment: MLN4924 1 uM, 8 h)?
A: 3.68 ± 0.22

Q: With AVGDRQDGLREQLQAPVPPDSVPS [PBXIP1] as the sequence, how does the protein stability index (treatment: DMSO) read?
A: 5.33 ± 0.37

Q: And the protein stability index (treatment: MLN4924 1 uM, 8 h)?
A: 5.37 ± 0.18

Q: What does the source list for VSCFLTFNIFDWLGRSLTAVFMWP [SLC29A1]?
A: protein stability index (treatment: DMSO): 3.03 ± 0.07; protein stability index (treatment: MLN4924 1 uM, 8 h): 3.502 ± 0.017

Q: For EELNNGEPQTEHQQESESEIDSVP [MIA2], which protein stability index (treatment: DMSO) is on record?
A: 5.6 ± 0.24

Q: And the protein stability index (treatment: MLN4924 1 uM, 8 h)?
A: 5.52 ± 0.43

Q: Which protein stability index (treatment: DMSO) does the source give for ACDSKLTFDAITTIRGEVMFFKDR [MMP1] here?
A: 2.45 ± 0.24

Q: What about the protein stability index (treatment: MLN4924 1 uM, 8 h) of the same sequence?
A: 2.83 ± 0.19

Q: With HRIWMYNCHIGGSFSEETEKKFEH [LOXL2] as the sequence, how does the protein stability index (treatment: DMSO) read?
A: 2.42 ± 0.21

Q: And the protein stability index (treatment: MLN4924 1 uM, 8 h)?
A: 2.62 ± 0.34

Q: With TAIFYTLMTCEMLNRRNGSLRIAL [EDNRA] as the sequence, how does the protein stability index (treatment: DMSO) read?
A: 2.85 ± 0.21

Q: What about the protein stability index (treatment: MLN4924 1 uM, 8 h) of the same sequence?
A: 3.15 ± 0.42

Q: For ESLPVSLGPESWQQIAMDPEEVKS [BCL2L13], which protein stability index (treatment: DMSO) is on record?
A: 5.39 ± 0.21

Q: And the protein stability index (treatment: MLN4924 1 uM, 8 h)?
A: 5.27 ± 0.31

Q: What does the source list for HTLNNLVEKLLREEAEGARWTSYR [TRIM35]?
A: protein stability index (treatment: DMSO): 2.48 ± 0.2; protein stability index (treatment: MLN4924 1 uM, 8 h): 2.57 ± 0.19

Q: Which protein stability index (treatment: DMSO) does the source give for HIFGDLDSYIPLHEDLLTRIGEAT [NET1] here?
A: 2.96 ± 0.14

Q: And the protein stability index (treatment: MLN4924 1 uM, 8 h)?
A: 2.93 ± 0.17

Q: Which results are given for DSAVENLLLLSKAKLVPSEREASP [IKZF1]?
A: protein stability index (treatment: DMSO): 4.15 ± 0.23; protein stability index (treatment: MLN4924 1 uM, 8 h): 4.59 ± 0.14
